Measurements taken from ChEMBL document CHEMBL6109039, “Designed and synthesized novel tripeptides targeting diabetes and its related pathologies” (Eur J Med Chem, 2025).

Columns and labels:
[1] = compound: N=C(N)NCCC[C@H](N)C(=O)N[C@@H](Cc1c[nH]c2ccccc12)C(=O)N[C@@H](Cc1c[nH]c2ccccc12)C(=O)O; test: Inhibition of porcine pancreatic Alpha-amylase using starch as substrate assessed as Km pre-incubated for 20 mins followed by substrate addition and measured after 15 mins by Lineweaver-Burk plot analysis (reference value: 0.657 mM); settings: Sus scrofa; time 35.0 min
[2] = compound: N=C(N)NCCC[C@H](N)C(=O)N[C@@H](Cc1c[nH]c2ccccc12)C(=O)N[C@@H](Cc1c[nH]c2ccccc12)C(=O)O; test: Inhibition of porcine pancreatic Alpha-amylase using starch as substrate assessed as maximum velocity pre-incubated for 20 mins followed by substrate addition and measured after 15 mins by Lineweaver-Burk plot analysis (reference value: 0.666); settings: Sus scrofa; time 35.0 min

B1: Pancreatic alpha-amylase (Sus scrofa), P00690 (protein)
chain: MKLFLLLSAFGFCWAQYAPQTQSGRTSIVHLFEWRWVDIALECERYLGPKGFGGVQVSPPNENIVVTNPSRPWWERYQPVSYKLCTRSGNENEFRDMVTRCNNVGVRIYVDAVINHMCGSGAAAGTGTTCGSYCNPGNREFPAVPYSAWDFNDGKCKTASGGIESYNDPYQVRDCQLVGLLDLALEKDYVRSMIADYLNKLIDIGVAGFRIDASKHMWPGDIKAVLDKLHNLNTNWFPAGSRPFIFQEVIDLGGEAIQSSEYFGNGRVTEFKYGAKLGTVVRKWSGEKMSYLKNWGEGWGFMPSDRALVFVDNHDNQRGHGAGGASILTFWDARLYKVAVGFMLAHPYGFTRVMSSYRWARNFVNGQDVNDWIGPPNNNGVIKEVTINADTTCGNDWVCEHRWRQIRNMVWFRNVVDGQPFANWWANGSNQVAFGRGNRGFIVFNNDDWQLSSTLQTGLPGGTYCDVISGDKVGNSCTGIKVYVSSDGTAQFSISNSAEDPFIAIHAESKL
B1 gave a Km [1] of 704 µM and a Vmax [2] of 0.574.
